From article PMC6789926

Biological target: tetrameric soluble CedV G (sG) (Cedar virus)
Assay: SPR

Molecule | Kd [nM] | koff [s⁻¹] | kon [M⁻¹ s⁻¹]
mouse ephrin-B1 (soluble, Fc-conjugated) (from UniProt P52795 25-345) (Fc fusion) | 0.24 | 0.00029 | –
mouse ephrin-B2 (soluble, Fc-conjugated) (from UniProt P52800 29-232) (Fc fusion) | 0.56 | 0.00103 | 1.84e+06
human ephrin-A1 Fc (Fc fusion) | 4210 | 0.00981 | –
human ephrin-A5 (soluble, Fc-conjugated) (Fc fusion) QDPGSKAVADRYAVYWNSSNPRFQRGDYHIDVCINDYLDVFCPHYEDSVPEDKTERYVLYMVNFDGYSACDHTSKGFKRWECNRPHSPNGPLKFSEKFQLFTPFSLGFEFRPGREYFYISSAIPDNGRRSCLKLKVFVRPTNSCMKTIGVHDRVFDVNDKVENSLEPADDTVHESAEPSRGEN | 113 | 0.00079 | –
mouse ephrin-A1 (soluble, Fc-conjugated) (Fc fusion) ADRHIVFWNSSNPKFREEDYTVHVQLNDYLDIICPHYEDDSVADAAMERYTLYMVEHQEYVACQPQSKDQVRWNCNRPSAKHGPEKLSEKFQRFTPFILGKEFKEGHSYYYISKPIYHQESQCLKLKVTVNGKITHNPQAHVNPQEKRLQADDPEVQVLHSIGYS | 24.5 | 0.00179 | 73900
mouse ephrin-A2 (soluble, Fc-conjugated) (Fc fusion) RNEDPARANADRYAVYWNRSNPRFQVSAVGDGGGYTVEVSINDYLDIYCPHYGAPLPPAERMERYILYMVNGEGHASCDHRQRGFKRWECNRPAAPGGPLKFSEKFQLFTPFSLGFEFRPGHEYYYISATPPNLVDRPCLRLKVYVRPTNETLYEAPEPIFTSN | 196 | 0.00636 | 32400
